Test [1] deals with Monomer-enriched preparation of the Aβ1-42 peptide (W. M. Keck Facility peptide). Kind of test: ELISA, coated 2.2 µM; Ab 1:4 (start 0.5 µg/ml); mean of 3. On the technique in general: In an ELISA, binding on a coated surface is turned into a signal by an enzyme label.
The target of test [2] is Oligomer-enriched preparation of the Aβ1-42 peptide (W. M. Keck Facility peptide). Kind of test: ELISA, coated 2.2 µM; Ab 1:2 (start 0.5 µg/ml); mean of 3.
The target in test [3] is Monomer-enriched preparation of the Aβ1-42 peptide (W. M. Keck Facility peptide). The test is described as above.
Test [4] shares this target. The test can be described thus: ELISA, coated 2.2 µM; Ab 1:16 (start 0.5 µg/ml); mean of 3.
In test [5] the target is Oligomer-enriched preparation of the Aβ1-42 peptide (W. M. Keck Facility peptide). The test can be described thus: ELISA, coated 2.2 µM; Ab 1:32 (start 0.5 µg/ml); mean of 3.
Test [6] concerns the target Monomer-enriched preparation of the Aβ1-42 peptide (W. M. Keck Facility peptide). The description is as above.
For test [7], the target named is Oligomer-enriched preparation of the Aβ1-42 peptide (W. M. Keck Facility peptide). The test can be described thus: ELISA, coated 2.2 µM; Ab 1:64 (start 0.5 µg/ml); mean of 3.
Test [8] has the same target. Kind of test: ELISA, coated 2.2 µM; Ab 1:8 (start 0.5 µg/ml); mean of 3.
The target is the same in test [9]. The test can be described thus: ELISA, coated 2.2 µM; Ab 1:128 (start 0.5 µg/ml); mean of 3.

Sequence of Monomer-enriched preparation of the Aβ1-42 peptide (W. M. Keck Facility peptide) (peptide, as listed by the source): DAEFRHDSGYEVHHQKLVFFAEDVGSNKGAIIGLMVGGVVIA
Sequence of Oligomer-enriched preparation of the Aβ1-42 peptide (W. M. Keck Facility peptide) (peptide, as listed by the source): as above

As to 6E10 control antibody, the O.D. was found to be 3.27 O.D in test [1]; 3.59 O.D in [2]; 3.59 O.D in [3]; 1.98 O.D in [4]; 1.32 O.D in test [5]; 1.36 O.D in test [6]. Besides, the O.D. in test [7] was found to be 0.92 O.D; in test [8], 2.98 O.D; in test [9], 0.63 O.D.

(Values after patent publication US20100291097A1.)
